Assay [1] has as its target T1, HER2-ECD-Fc (human, UniProt P04626 23-652).
T1 construct: extracellular domain; Produced in FreeStyle 293F cells; also called HER2-ECD Fc fusion protein
The assay can be described thus: ELISA on HER2-ECD-Fc; antibody at 5 × 10^-6 µg/mL. A general note: In an ELISA, binding on a coated surface is turned into a signal by an enzyme label.

The target of assay [2] is T2, HER2-ECD DIII Fc (human, UniProt P04626 342-510, limits assumed).
T2 construct: domain: domain 3; also called domain 3 of the extracellular domains of the HER2 protein; not shown: Hinge and Fc region (CH2-CH3) of human IgG1, at the C-terminus
The assay can be described thus: ELISA on plate-coated HER2 domain-Fc fusion (1 µg/mL), anti-human IgG-HRP, Abs 450 nm; antibody concentration not given. The protocol:
(§1) The HER2-ECD DI Fc, HER2-ECD DII Fc, HER2-ECD DIII Fc, HER2-ECD DIV Fc and HER2-ECD Fc fusion proteins were immobilized at 4° C. overnight onto a Costar 96-well plate (Corning, Cat. No. 3590) at a concentration of 1 μg/mL […]. The resultant was washed 3 times with TBS-T (0.05% Triton X-100) and then blocked at room temperature for 1 hour with 100 μL of TBS-T/BSA (5% BSA). After washing the blocked plate 3 times and adding the anti-HER2 antibody, the antibody was allowed to bind at room temperature for 1 hour. After washing 3 times and then adding anti-human IgG-HRP diluted to 1:3,000 in TBS-T/BSA, as a secondary antibody, the antibody was allowed to bind at room temperature for 1 hour. After washing the resultant 3 times and adding TMB (SurModics, Cat. No. TMBC-1000-01), the mixture was allowed to develop color at room temperature for 5 minutes. Then, the color development was stopped by adding 1 N sulfuric acid (DukSan, Cat. No. 254). Absorbance was measured at 450 nm using Victor X3 (PerkinElmer, Cat. No. 2030-0030).

The target of assay [3] is T1, HER2-ECD-Fc. The assay can be described thus: ELISA on HER2-ECD-Fc; antibody at 5 × 10^-3 µg/mL.
Assay [4] has as its target T1, HER2-ECD-Fc. Nature of the assay: ELISA on HER2-ECD-Fc; antibody at 50 µg/mL.
The target in assay [5] is T1, HER2-ECD-Fc. The assay can be described thus: ELISA on HER2-ECD-Fc; antibody at 5 × 10^-4 µg/mL.
Assay [6] deals with T1, HER2-ECD-Fc. Nature of the assay: ELISA on HER2-ECD-Fc; antibody at 5 µg/mL.
Assay [7] addresses T3, EGFR-ECD-Fc (human, UniProt P00533 25-645).
T3 construct: extracellular domain; also called extracellular domain of EGFR; not shown: Hinge and Fc region (CH2-CH3) of human IgG1; The protein was produced in the same manner as HER2-ECD-Fc
The assay can be described thus: ELISA on ErbB family extracellular domains, Absorbance at 450 nm; antibody concentration not given. From the text:
(§2) It was investigated whether the developed five antibodies of the present disclosure specifically bind to HER2 belonging to the ErbB family proteins by ELISA.

The target of assay [8] is T4, HER4 (R&D Systems, #1131-ER-050) (human, UniProt Q15303 26-651).
T4 construct: extracellular domain; Bought
T4 sequence (looked up): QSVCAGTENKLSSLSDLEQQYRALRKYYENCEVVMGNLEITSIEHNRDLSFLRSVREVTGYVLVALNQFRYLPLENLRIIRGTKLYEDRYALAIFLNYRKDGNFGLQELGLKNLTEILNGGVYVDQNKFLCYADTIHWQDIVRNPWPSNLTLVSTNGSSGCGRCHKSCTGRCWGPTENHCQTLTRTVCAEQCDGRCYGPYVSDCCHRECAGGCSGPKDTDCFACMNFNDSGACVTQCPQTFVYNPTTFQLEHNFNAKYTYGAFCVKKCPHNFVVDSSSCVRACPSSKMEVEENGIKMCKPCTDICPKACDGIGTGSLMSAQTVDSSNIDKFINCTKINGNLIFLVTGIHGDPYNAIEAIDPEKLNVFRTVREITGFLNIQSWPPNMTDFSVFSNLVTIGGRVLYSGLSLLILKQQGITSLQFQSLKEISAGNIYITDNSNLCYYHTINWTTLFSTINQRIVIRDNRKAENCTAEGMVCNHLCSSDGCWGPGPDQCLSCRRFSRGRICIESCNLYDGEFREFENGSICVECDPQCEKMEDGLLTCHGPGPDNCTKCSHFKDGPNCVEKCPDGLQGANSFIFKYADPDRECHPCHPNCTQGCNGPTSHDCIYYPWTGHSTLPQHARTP
Described as above.
From the text: as §2

The target in assay [9] is T5, HER3 (R&D Systems, #348-RB-050) (human, UniProt P21860 20-643).
T5 construct: extracellular domain; Bought
The assay is described as above.
From the text: as §2

Assay [10] deals with T1, HER2-ECD-Fc. Nature of the assay: ELISA on HER2-ECD-Fc; antibody at 5 × 10^-1 µg/mL.
In assay [11] the target is T1, HER2-ECD-Fc. Nature of the assay: ELISA on HER2-ECD-Fc; antibody at 5 × 10^-2 µg/mL.
Assay [12] has as its target T1, HER2-ECD-Fc. Nature of the assay: ELISA on HER2-ECD-Fc; antibody at 5 × 10^-7 µg/mL.
The target of assay [13] is T1, HER2-ECD-Fc. Nature of the assay: ELISA on HER2-ECD-Fc; antibody at 5 × 10^-5 µg/mL.
The target in assay [14] is T6, HER2-ECD-His (human, UniProt P04626 23-652).
T6 construct: extracellular domain; also called HER2-His; HER2-ECD-His protein; not shown: His tag
The assay can be described thus: SPR (Biacore, CM5), IgG captured by anti-human IgG, HER2-ECD-His as analyte. As to the method:
2000 RU of goat anti-human IgG (Invitrogen, #H10500) was immobilized onto a CM5 sensor chip by […]. Then, the antibodies were allowed to bind at a rate of 50 μL/min for 5 minutes and then stabilized for 5 minutes by flowing a buffer. After stabilizing the antibodies, the HER2-ECD-His protein was allowed to bind at a rate of 50 μL/min for 4 minutes and then separated by flowing a buffer for 15 minutes. After analyzing the concentration, the resultant was recycled using 10 mM glycine (pH 1.5) and then subjected to the subsequent assay. The affinity of the antibodies was analyzed using the BIAevaluation software.
For orientation: In SPR one partner is held on a chip, and binding of the other changes the refractive index at the surface.

Assay [15] addresses T7, HER2-ECD DI Fc (human, UniProt P04626 23-217, limits assumed).
T7 construct: domain: domain 1; also called domain 1 of the extracellular domains of the HER2 protein; not shown: Hinge and Fc region (CH2-CH3) of human IgG1, at the C-terminus
The assay can be described thus: ELISA on plate-coated HER2 domain-Fc fusion (1 µg/mL), anti-human IgG-HRP, Abs 450 nm; antibody concentration not given. As to the method: as §1

Broadly, the Kd is the equilibrium constant for the complex coming apart. High values mean weaker binding, low ones tighter binding. A word on the koff: it is a measure of how fast the partners let go of each other. A low value points to slow dissociation. As a reminder, the kon is a measure of how fast the partners come together.

B1: hz2G10 (antibody, V domains shown)
VH: EVQLVESGGGLVQPGGSLRLSCAASGFTFSDYYMYWVRQAPGKGLEWVAYINSGGGSTYYPDTVKGRFTISRDNAKNSLYLQMNSLRAEDTAVYYCAREALYDYDYAMDYWGQGTTVTVSS
VL: DIVMTQSPLSLSVTPGQPASISCKSSQSLLYSNGKTYLNWLLQKPGQSPQRLIYLVSKLDSGVPDRFSGSGSGTDFTLKISRVEAEDVGVYYCVQGTHFPLTFGGGTKVEIK
notes: Humanized antibody, detected with anti-human IgG-HRP; Only the variable domains are tied to the name; also called humanized 2G10 antibody
Take B1: the absorbance worked out at 0.12 in assay [1]; 0.22 in [3]; 2.81 in [4]; 0.12 in assay [5]; 2.79 in assay [6]; 2.69 in [10]. In addition, the absorbance was 1.16 in assay [11], 0.12 in [12] and 0.12 in [13]. Also, the binding result in [2], in assay [7], in [8] and in assay [9] was “no binding” throughout.

B2: hz39D2 (antibody, V domains shown)
VH: QVQLVQSGSELKKPGASVKVSCKASGYTFTNYGVNWVRQAPGQGLEWMGWINTHTGEPTYAEEFKGRFVFSLDTSVSTAYLQISSLKAEDTAVYYCARDDYYVRVDYWGQGTTVTVSS
VL: DIQMTQSPSSLSASVGDRVTITCKASQDINSYLSWFQQKPGKAPKTLIYRANRLVDGVPSRFSGSGSGQDYTLTISSLQPEDFATYYCLQYDEFPWTFGQGTKVEIK
notes: Humanized antibody, captured as IgG by anti-human IgG in SPR; also called humanized 39D2 antibody
Take B2: the absorbance was determined as 0.12 in [1]; 2.29 in [3]; 2.83 in assay [4]; 0.47 in assay [5]; 2.9 in assay [6]; 2.78 in assay [10]. Moreover, the absorbance was 2.92 in assay [11], 0.12 in assay [12] and 0.15 in assay [13]. Besides, the binding result in assay [2], in assay [7], in assay [8] and in assay [9] was “no binding” each time. The molecule also yielded a Kd in assay [14] of 37 nM. Besides, the koff in assay [14] turned out to be 0.0025 s⁻¹. In [14], the kon amounted to 68000 M⁻¹ s⁻¹.

B3: hz39D2.14 (antibody, V domains shown)
VH: QVQLVQSGSELKKPGASVKVSCKASGYTFTNYGVNWVRQAPGQGLEWMGWINTHTGEPTYAEEFKGRFVFSLDTSVSTAYLQISSLKAEDTAVYYCARDEYYVRTDYWGQGTTVTVSS
VL: DIQMTQSPSSLSASVGDRVTITCKASQDINSYLSWFQQKPGKAPKTLIYRANRLVDGVPSRFSGSGSGQDYTLTISSLQPEDFATYYCLQYDEFPWTFGQGTKVEIK
In [14], B3 returned a Kd of 8 nM, a koff of 0.0003 s⁻¹ and an association rate constant (kon) of 37000 M⁻¹ s⁻¹.

B4: hz39D2.23 (antibody, human IgG1, kappa, V domains shown)
VH: QVQLVQSGSELKKPGASVKVSCKASGYTFTNYGVNWVRQAPGQGLEWMGWINTHTGEPTYAEEFKGRFVFSLDTSVSTAYLQISSLKAEDTAVYYCARDEYYVRVDYWGQGTTVTVSS
VL: DIQMTQSPSSLSASVGDRVTITCKASQDINSYLSWFQQKPGKAPKTLIYRANRLVDGVPSRFSGSGSGQDYTLTISSLQPEDFATYYCLQLDEFPWTFGQGTKVEIKR
Take B4: in assay [14], the Kd came out at 2.8 nM, the koff amounted to 0.0002 s⁻¹ and the kon stood at 71000 M⁻¹ s⁻¹.

B5: hz39D2.22 (antibody, V domains shown)
VH: QVQLVQSGSELKKPGASVKVSCKASGYTFTNYGVNWVRQAPGQGLEWMGWINTHTGEPTYAEEFKGRFVFSLDTSVSTAYLQISSLKAEDTAVYYCARDEYYVRVDYWGQGTTVTVSS
VL: DIQMTQSPSSLSASVGDRVTITCKASQDINSYLSWFQQKPGKAPKTLIYRANRLVDGVPSRFSGSGSGQDYTLTISSLQPEDFATYYCLELDEFPWTFGQGTKVEIK
With B5, in [14], the Kd is 2 nM, the koff was 0.00016 s⁻¹ and the kon stood at 81000 M⁻¹ s⁻¹.

B6: 24D3 (antibody, V domains shown)
VH: EVKLVESGGGLVKPGGSLKLSCAASGFTFSSCAMSWVRQTPEKRLEWVATISGGGSYTYYPDSVKGRFTISRDNAKNTLYLQMSSLRSEDTAMYYCARHGGYESWFPYWGQGTLVTVSA
VL: DIVMTQSPLSLPVSLGDQASISCRSSQSLVHSNGNTYLHWYLQKPGQSPKLLIYKVSNRFSGVPDRFSGSGSGTDFTLKISRVEAEDLGVYFCSQSTHVPPWTFGGGTKLEIK
Turning to B6, the absorbance in assay [1] stood at 0.11; in assay [3], 1.13; in assay [4], 2.75; in assay [5], 0.22; in [6], 2.92; in assay [10], 2.9. Moreover, the absorbance in assay [11] was found to be 2.76; in [12], 0.11; in assay [13] it was 0.12. In addition, the binding result in [15], in [7], in assay [8] and in assay [9] was “no binding” in each case.

For the origin of these results see patent US20260028418A1 (GC CELL, published 2026).
